Test results as given in patent publication CN115677856A (DONGGUAN PENGZHI BIOTECHNOLOGY CO LTD, dated 2023).
Numbering of substitutions follows the chain as printed.

B1: Ig-M-9G1RMb1抗体 (antibody, mouse IgG1, kappa, V domains shown)
VH: EVQLQQSGAELVKPGASVKLSCTTSGFSIKDAYIHWVKQRPKQGLEWIGRIDPANGYTKYDPKFQGKATITADKSSSTAYMQLRSLTSEDSAVYYCAREPLPHYYAMDYWGQGTSVTVSS
VL: DIQMTQSPSSLSASLGERVSLTCRASQEISGFLSWLQQKPDGTIKRLIYAASTLDSGVPKRFSGSTSGSDYRLKISSLESEDFADYYCIQYTSFPLTFGAGTKLELKR
notes: It was detected with goat anti-mouse IgG-HRP and captured on AMC sensors; also called 抗人IgM抗体
B2: Ig-M-9G1RMb2抗体 (antibody, V domains shown)
VH: B1 VH
VL: B1 VL with I89L

Target: 人IgM (human, UniProt P01871 1-453)
Assay: AMC sensor kinetics, antibody captured on the sensor, human IgM in graded dilutions in solution

Sequence of 人IgM (P01871 other isoform, or with tags, fused parts or gaps): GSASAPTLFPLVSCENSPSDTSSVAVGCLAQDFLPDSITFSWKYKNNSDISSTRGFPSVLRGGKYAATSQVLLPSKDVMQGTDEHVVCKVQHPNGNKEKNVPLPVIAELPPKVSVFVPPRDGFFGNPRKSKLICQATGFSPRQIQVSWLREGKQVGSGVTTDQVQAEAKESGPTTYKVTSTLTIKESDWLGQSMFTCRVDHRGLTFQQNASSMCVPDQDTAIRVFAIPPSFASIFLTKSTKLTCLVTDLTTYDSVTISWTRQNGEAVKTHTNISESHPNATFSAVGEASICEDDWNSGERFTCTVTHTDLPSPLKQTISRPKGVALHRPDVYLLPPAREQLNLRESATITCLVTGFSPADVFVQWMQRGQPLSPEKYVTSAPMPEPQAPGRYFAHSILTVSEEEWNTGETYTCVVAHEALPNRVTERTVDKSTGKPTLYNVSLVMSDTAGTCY

Binder | Kd [pM] | koff [s⁻¹] | kon [M⁻¹ s⁻¹]
B1 | 3.02 | 2.84e-05 | 9.41e+06
B2 | 4.27 | 6.07e-05 | 1.42e+07
